# T1: O13
# T1 chain: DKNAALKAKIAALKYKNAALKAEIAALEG
# T2: O15
# T2 chain: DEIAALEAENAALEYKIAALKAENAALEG
# T3: O8
# T3 chain: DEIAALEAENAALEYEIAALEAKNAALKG
# T4: O16
# T4 chain: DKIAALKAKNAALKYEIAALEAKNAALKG
# T5: O3
# T5 chain: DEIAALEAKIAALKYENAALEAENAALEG
# T6: O9
# T6 chain: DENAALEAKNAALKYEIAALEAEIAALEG
# T7: O2
# T7 chain: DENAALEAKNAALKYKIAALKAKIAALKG
# T8: O5
# T8 chain: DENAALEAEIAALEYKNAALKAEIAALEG
# T9: O6
# T9 chain: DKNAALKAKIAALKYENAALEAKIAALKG
# T10: O14
# T10 chain: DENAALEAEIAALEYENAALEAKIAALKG
# T11: O7
# T11 chain: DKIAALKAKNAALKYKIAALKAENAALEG
# T12: O12
# T12 chain: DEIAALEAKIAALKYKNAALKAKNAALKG
# T13: O4
# T13 chain: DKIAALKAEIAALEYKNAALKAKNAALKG
# T14: 4H918-bN
# T14 chain: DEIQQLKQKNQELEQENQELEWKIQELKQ
# T15: 4H883-bH
# T15 chain: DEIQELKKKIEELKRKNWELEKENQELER
# T16: 4H370-bH
# T16 chain: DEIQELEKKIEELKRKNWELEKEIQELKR
# T17: 4H3185-bH
# T17 chain: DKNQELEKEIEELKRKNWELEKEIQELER
# T18: 4H4001-bN
# T18 chain: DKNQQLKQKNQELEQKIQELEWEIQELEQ
# T19: 4H2729-bH
# T19 chain: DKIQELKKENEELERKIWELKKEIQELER
# T20: 4H908-bH
# T20 chain: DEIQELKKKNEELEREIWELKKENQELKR
# T21: 4H575-bA
# T21 chain: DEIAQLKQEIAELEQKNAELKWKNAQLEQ
# T22: 4H2717-bN
# T22 chain: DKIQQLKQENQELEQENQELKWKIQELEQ
# T23: 4H1845-bH
# T23 chain: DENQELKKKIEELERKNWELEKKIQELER
# T24: 4H2697-bH
# T24 chain: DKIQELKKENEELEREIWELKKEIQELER
# T25: 4H2618-bH
# T25 chain: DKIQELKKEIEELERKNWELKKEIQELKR
# T26: 4H918-bH
# T26 chain: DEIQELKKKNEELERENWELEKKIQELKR
# T27: 4H3354-bH
# T27 chain: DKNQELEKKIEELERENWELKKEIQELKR
# T28: 4H331-bH
# T28 chain: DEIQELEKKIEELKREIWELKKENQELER
# T29: 4H338-bH
# T29 chain: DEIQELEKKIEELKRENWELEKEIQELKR
# T30: O7-bN
# T30 chain: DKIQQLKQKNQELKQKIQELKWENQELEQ
# T31: 4H3606-bH
# T31 chain: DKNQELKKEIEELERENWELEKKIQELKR
# T32: 4H607-bH
# T32 chain: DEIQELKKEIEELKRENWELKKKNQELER
# T33: 4H568-bH
# T33 chain: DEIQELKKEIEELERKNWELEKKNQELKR
# T34: 4H2667-bH
# T34 chain: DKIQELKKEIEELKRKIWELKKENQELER
# T35: 4H3427-bH
# T35 chain: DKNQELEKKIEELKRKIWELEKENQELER
# T36: 4H797-bH
# T36 chain: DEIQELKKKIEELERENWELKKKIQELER
# T37: 4H2442-bH
# T37 chain: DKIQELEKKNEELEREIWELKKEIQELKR
# T38: 4H717-bH
# T38 chain: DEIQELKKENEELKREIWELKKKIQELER
# T39: 4H953-bH
# T39 chain: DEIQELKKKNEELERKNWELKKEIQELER
# T40: 4H454-bH
# T40 chain: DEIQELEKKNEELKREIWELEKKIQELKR
# T41: 4H462-bH
# T41 chain: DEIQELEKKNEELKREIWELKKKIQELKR
# T42: 4H2576-bH
# T42 chain: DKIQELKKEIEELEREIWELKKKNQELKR
# T43: 4H3843-bH
# T43 chain: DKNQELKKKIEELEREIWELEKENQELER
# T44: 4H754-bH
# T44 chain: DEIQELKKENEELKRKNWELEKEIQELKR
# T45: 4H967-bH
# T45 chain: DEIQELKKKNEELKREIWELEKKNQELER
# T46: 4H72-bH
# T46 chain: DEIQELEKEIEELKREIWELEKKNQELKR
# T47: 4H2610-bH
# T47 chain: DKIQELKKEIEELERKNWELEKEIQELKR
# T48: 4H4001-bH
# T48 chain: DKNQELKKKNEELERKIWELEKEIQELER
# T49: 4H3189-bH
# T49 chain: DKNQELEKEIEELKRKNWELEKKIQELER
# T50: 4H3782-bH
# T50 chain: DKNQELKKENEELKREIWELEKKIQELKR
# T51: 4H687-bH
# T51 chain: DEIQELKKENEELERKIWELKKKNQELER
# T52: 4H3112-bH
# T52 chain: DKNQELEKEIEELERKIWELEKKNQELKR
# T53: 4H3855-bH
# T53 chain: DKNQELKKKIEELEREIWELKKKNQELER
# Tests used:
# Test in all cases: two-hybrid library CCNG1;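 further: natural log of median RNA to DNA barcode read ratio; higher means stronger binding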
# [1] = molecular target: T1, O13
# [2] = molecular target: T2, O15
# [3] = molecular target: T3, O8
# [4] = molecular target: T4, O16
# [5] = molecular target: T5, O3
# [6] = molecular target: T6, O9
# [7] = molecular target: T7, O2
# [8] = molecular target: T8, O5
# [9] = molecular target: T9, O6
# [10] = molecular target: T10, O14
# [11] = molecular target: T11, O7
# [12] = molecular target: T12, O12
# [13] = molecular target: T13, O4
# [14] = molecular target: T14, 4H918-bN
# [15] = molecular target: T15, 4H883-bH
# [16] = molecular target: T16, 4H370-bH
# [17] = molecular target: T17, 4H3185-bH
# [18] = molecular target: T18, 4H4001-bN
# [19] = molecular target: T19, 4H2729-bH
# [20] = molecular target: T20, 4H908-bH
# [21] = molecular target: T21, 4H575-bA
# [22] = molecular target: T22, 4H2717-bN
# [23] = molecular target: T23, 4H1845-bH
# [24] = molecular target: T24, 4H2697-bH
# [25] = molecular target: T25, 4H2618-bH
# [26] = molecular target: T26, 4H918-bH
# [27] = molecular target: T27, 4H3354-bH
# [28] = molecular target: T28, 4H331-bH
# [29] = molecular target: T29, 4H338-bH
# [30] = molecular target: T30, O7-bN
# [31] = molecular target: T31, 4H3606-bH
# [32] = molecular target: T32, 4H607-bH
# [33] = molecular target: T33, 4H568-bH
# [34] = molecular target: T34, 4H2667-bH
# [35] = molecular target: T35, 4H3427-bH
# [36] = molecular target: T36, 4H797-bH
# [37] = molecular target: T37, 4H2442-bH
# [38] = molecular target: T38, 4H717-bH
# [39] = molecular target: T39, 4H953-bH
# [40] = molecular target: T40, 4H454-bH
# [41] = molecular target: T41, 4H462-bH
# [42] = molecular target: T42, 4H2576-bH
# [43] = molecular target: T43, 4H3843-bH
# [44] = molecular target: T44, 4H754-bH
# [45] = molecular target: T45, 4H967-bH
# [46] = molecular target: T46, 4H72-bH
# [47] = molecular target: T47, 4H2610-bH
# [48] = molecular target: T48, 4H4001-bH
# [49] = molecular target: T49, 4H3189-bH
# [50] = molecular target: T50, 4H3782-bH
# [51] = molecular target: T51, 4H687-bH
# [52] = molecular target: T52, 4H3112-bH
# [53] = molecular target: T53, 4H3855-bH
binder,measurement,setting,value
DEIAALEAKIAALKYKNAALKAKNAALKG [O12],interaction score,[1],-2.04
same,interaction score,[2],-1.36
same,interaction score,[3],-1.51
same,interaction score,[4],-2.57
same,interaction score,[5],0.318
same,interaction score,[6],-1.67
same,interaction score,[7],-2.46
same,interaction score,[8],-2.03
same,interaction score,[9],-2.27
same,interaction score,[10],-1.45
same,interaction score,[11],-2.15
same,interaction score,[12],-2.08
same,interaction score,[13],-1.08
DENQELKKKIEELERKNWELEKKIQELER [4H1845-bH],interaction score,[14],-1.11
same,interaction score,[15],0.0604
same,interaction score,[16],-0.319
same,interaction score,[17],0.639
same,interaction score,[18],-0.805
same,interaction score,[19],0.473
same,interaction score,[20],-1
same,interaction score,[21],-1.1
same,interaction score,[22],-0.601
same,interaction score,[23],0.142
same,interaction score,[24],0.106
same,interaction score,[25],-1.52
same,interaction score,[26],-0.512
same,interaction score,[27],0.334
same,interaction score,[28],-1.2
same,interaction score,[29],-0.243
same,interaction score,[30],-0.332
same,interaction score,[31],0.808
same,interaction score,[32],-2.75
same,interaction score,[33],-0.447
same,interaction score,[34],0.349
same,interaction score,[35],-0.323
same,interaction score,[36],0.175
same,interaction score,[37],-0.237
same,interaction score,[38],0.319
same,interaction score,[39],-0.598
same,interaction score,[40],-0.0899
same,interaction score,[41],-0.599
same,interaction score,[42],-1.7
same,interaction score,[43],-0.224
same,interaction score,[44],0.391
same,interaction score,[45],-0.511
same,interaction score,[46],0.142
same,interaction score,[47],-0.549
same,interaction score,[48],-1.03
same,interaction score,[49],0.462
same,interaction score,[50],0.165
same,interaction score,[51],-0.46
same,interaction score,[52],-0.698
same,interaction score,[53],-0.295

# Source: PMC10397247
